# Results: the RNAGym collection of RNA variant scans (doi:10.1073/pnas.2313332121)
# B1: TPR t1 (parent)
# chain: GACCAAUCUGCCCUCAGAGCUCGAGAACAUCUUCGGAUGCAGAGGAGGCAGGCUUCGGUGGCGCGAUAGCGCCAACGUCCUCAACCUCCAAUGCAUCCCACCACAUGAUGAUGCCUGAAGAGCCUUGGUUUUUUG
# Variants of: B1
# Assay: polymerase ribozyme fitness, log enrichment relative to wild type (log ratio); higher = more active; in vitro selection for triplet polymerase activity
# Method in brief: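 Fitness is a logarithmic measure of how a genotype enriched relative to the wild type, with replicate averages weighted by inverse variance. The logarithm uses base 2, and enrichment came from Illumina sequencing of input and output libraries. Those libraries were PCR-built, transcribed mutants of each subunit of a heterodimeric triplet polymerase ribozyme, passed through one triplicate in vitro selection round that included frozen incubation at −7 °C, gel excision of extended constructs and streptavidin-bead capture. Genotypes were kept only if they had ≥10 input reads and ≥1 read per output.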
row,Variant,polymerase ribozyme fitness (log ratio)
1,U14G C40G C86U A90G U106A,-3.96
2,C15U G48C C72G U112A,-0.505
3,C15A A111G,-2.08
4,U14A G45A G110U U112C,-4.2
5,C15A G63A,-2.56
6,C13U G19U G52U C64U,-3.78
7,U14A G120A,-0.235
8,C15G G39U G48A A68U U112G,-7.39
9,C13U G39A A68C A91G C123A,-7.34
10,C15A C72U G93U C114G,-5.25
11,C13U G19C G48U,-3.4
12,C13U G63A C64U,-4.34
13,C13U C73U,-0.351
14,C13U U78A,0.102
15,U14A A46C U112A A119G G122C,-0.328
16,U14A A37U G93U U132A,-4.47
17,C15A G48C,-3.05
18,U14A C85A C89G C123U,-3.2
19,C15A A46U G117U C124U U132C,-0.364
20,C13U U14A A27U G47C,-6.21
21,C15A A41U G60C U133A,-3.25
22,C15U G42C A46U,-3.23
23,C15U A16U C76A C115A C123A U130C,-5.56
24,C15A A37G C79G,-3.88

row,Variant,polymerase ribozyme fitness (log ratio)
1,C15G G63U,-3.98
2,C15G G63A,-3.35
3,U14C A26C C70U U78A A83U U109G U112A,-6.59
4,C15U G42C G71U,-3.24
5,C13U G35U,-3.47
6,C15U C56A G69C U78C A83G U112C U116A,-6.66
7,C13U U30C C56U A121C U130G,-1.57
8,C13U U55A C88U,-0.31
9,C15U A50U G120C,-0.665
10,C15U A27U,-4.81
11,U14A G63C C82U U132A,-3.33
12,C15A C22A U96A C124U,-5.05
13,C13U U112C,1.07
14,C15G C62U,-1.91
15,C13U U33G G69U C104G G120A U125C,-6.78
16,U14C G57A C97U,-3.84
17,C15A A37U G39A G42U A90U,-3.14
18,C13U G35A G48A U59C C86U G120U,-5.19
19,C15A G61U A105C,-4.93
20,C13U G61C,-1.59
21,U14G G120U,-1.14
22,C15A G120A,0.181
23,U14A G52C C102U U106C C124G,-1.75
24,C13U G45U G60C C82U,-0.444

row,Variant,polymerase ribozyme fitness (log ratio)
1,C15A A41U,-3.45
2,U14C A18G G63A U78C G117U,-5.13
3,C15A G39A,-2.28
4,C15A G39C,-3.41
5,C15G A37C A46U C53A C56G,-4.78
6,C13U G44U C56A,-1.59
7,C13U C72U U92C A105G,-5.23
8,U14G U129G,-3.21
9,C13U G39U G61C,-1.9
10,U14A C53G C70U C72G,-4.88
11,C15A G57U C64G,-6.59
12,C15A G47U G61U G110A,-3.43
13,C13U C72G A74U G93A C114G,-4.31
14,C15U C56G A90C G93A G117U G127A,-3.28
15,U14A A46C G69A C101U G110U U126A,-6.24
16,C15G G117C,-3.41
17,U14G G71A G120C,-0.108
18,C15G A16U C72U U109A C115U,-6.16
19,C13U U92C C104U,-1.33
20,C15G U106G G117C,0.15
21,C15A U78A,-2.6
22,C15G G120C,-0.975
23,U14A G63C,-2.57
24,U14A C70A,-4.09

row,Variant,polymerase ribozyme fitness (log ratio)
1,C15U G42U G44C C94U,-3.39
2,U14G G60A G117U,-5.67
3,C15U G44U,-2.59
4,U14G C73U A90G,1.59
5,U14A A18C G113A C123U,-4.67
6,C13U G60C C82U U96G,-1.02
7,U14C G60C C64A U109G,-6.09
8,U14A C70U C104U,-2.52
9,C15U G42C C76U U106A,-4.25
10,U14G U54A G61C,-2.7
11,C15U G48A,-1.7
12,C15A A29G C72A U81A U87C G120C,-2.96
13,U14C A46U C62U U125A,-3.37
14,U14G G48A C64U U116A C123G U131C,-1.29
15,U14A G57A G61A A90G C124A,1.08
16,C15A C20A G107A A121G,-5.21
17,C15G A29G C88G,-3.43
18,U14A A18U C73A G77C A119U,-3.61
19,U14G A37G G42A G77A,-4.88
20,U14A C72U G93U U133A G135U,-4.17
21,C15U G39A G117C G120A,-3.48
22,C15U C76G G77C C123A,-2.59
23,C15A G48U A50G C97U,-4.67
24,C15G C98U,-4.22

row,Variant,polymerase ribozyme fitness (log ratio)
1,U14A C115U,-3.52
2,U14A G60U U78C,-3.65
3,C13U C123U,1.41
4,C15U G36C U112C,-1.24
5,U14G C20G G44U G117C,-6.5
6,C15A A46C G52U C56U C115G,-6.86
7,U14G C79G,-3.52
8,C13U U59A U81C,-0.938
9,C15G C70U C82G C88A,-4.4
10,C15A C72G C104U,-1.9
11,C13U C102A,-2.14
12,U14G G51A G113A G120A A121G,-2.87
13,C13U G47C C72G G110A,-3.24
14,C15G C114U,-4.3
15,U14C C40G C49G,-3.41
16,U14A C22A C101A U116G C124U,-5.17
17,U14C C20A C114U G128U,-5.92
18,C15U A41U,-2.32
19,C15G A37U A66G C123A,-3.27
20,U14A G63A U125A,-2.94
21,C15U C70U G71A,-1.62
22,C13U G113U,-2.4
23,C15G U92G C97U A118U,-4.66
24,C15A C82G G117C G120C,-5.78

row,Variant,polymerase ribozyme fitness (log ratio)
1,U14G C56U C70A,-5.19
2,U14G C73U,-1.04
3,C15A C28G G36A C40U G110C U112C C115A G117U G120A,-3.11
4,U14G G36C,-3.92
5,C15U C22G U54G G71U G93A G122A C123U,-4.87
6,C15G C53G C72A U81A G120C C123G,-2.32
7,C15U G23A A111U,-7.2
8,C15A C49G,-2.46
9,C15A A74G U81G U112C,-3.53
10,C13U C82G A90U C104A,-5.14
11,C15A G61U C89U G122U C124G G135A,-0.759
12,C13U C64U,0.138
13,C15U C82G A108G A111G A121C,-6.58
14,C15G A46G C56G,-4.02
15,C15A A18U C22G U92G,-6.59
16,C15A G52U U55G,-1.52
17,U14A C31U U87C U112G,-6.24
18,U14A C56G,-3.51
19,C13U U55G A91G,-0.322
20,C15A C20A G71U A118U,-4.11
21,C15G U32C A43G G45U C89G,-4.49
22,C15U G44C A83U A100C,-3.3
23,U14A C70G U125A,-4.4
24,C13U U21A A27G G61C C99U,-6.29

row,Variant,polymerase ribozyme fitness (log ratio)
1,C13U U21C C80U A90U,-1.82
2,C15A G63U C72U U129G U131C,-4.85
3,C15U G42C,-2.79
4,C15G C97U,-2.23
5,C15U A43U G45C C94G,-4.68
6,C15G G60C U130C,-1.49
7,C13U G69U G93A U126C,-0.75
8,C15U G44A G47A A105U,-5.8
9,C15A G69C,-3.57
10,U14G G69C,-3.2
11,C15G A16U G69C,-4.45
12,C13U C123U U132A,1.91
13,U14A U21G G120U C124U,-0.621
14,C15U A16U G58C C72U C80A A111C,-6.92
15,C15U A29U A37U C62G C124G G135C,-2.45
16,U14A G36U C40G C56A A84G C97A,-7.86
17,C13U C73G A83G,-1.22
18,C15G G42A C88G,-4.44
19,C15A C20U U109A,-5.4
20,C15U A41C G48A C53U C56U C124U,-1.63
21,U14A U32C U87A C101A,-3.54
22,U14A U116A A121G,0.0546
23,C15A G47U C115A A121C U133C,-3.65
